The values that follow come from publication PMC6076264.

The experiment addresses ribosomal protein bL12 (E. coli (endogenous in ribosomes of strain MRE600)) (UniProt P0A7K2).
Sequence of UniProt P0A7K2 (P0A7K2 whole entry): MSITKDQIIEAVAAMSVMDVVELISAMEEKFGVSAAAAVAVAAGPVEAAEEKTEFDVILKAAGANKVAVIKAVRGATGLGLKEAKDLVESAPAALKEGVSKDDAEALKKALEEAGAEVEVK

“RF1 (wild type) (from UniProt P0A7I0 1-360) (natural protein)”: the apparent affinity of RF1 for pre-hydrolysis complexes (PreHC, 0.01 uM) prepared with bL12-depleted (∆bL12) ribosomes, from peptide hydrolysis (10 s, 37 °C) came to 210 nM and the apparent affinity of RF1 for pre-hydrolysis complexes (PreHC, 0.01 uM) prepared with wild-type ribosomes bearing bL12, from peptide hydrolysis (10 s, 37 °C) is 9 nM.
